The target of assay [1] is high-affinity cell surface thrombin receptor on mouse embryo (ME) cells (mouse) (UniProt P30558). Kind of assay: competition with [^125I]-alpha-thrombin on ME cells; reference p508-530.
Assay [2] has the same target. Kind of assay: competition with [^125I]-alpha-thrombin (1 nM) on quiescent ME cells.
Assay [3] has the same target. Kind of assay: competition with [^125I]-alpha-thrombin (1 nM) for specific binding to quiescent ME cells, 23 C.
The target is the same in assay [4]. Kind of assay: cell-based or functional assay.
For assay [5] the target is unchanged. Kind of assay: competition with [^125I]-alpha-thrombin on ME cells.
Assay [6] has the same target. Kind of assay: competition with [^125I]-alpha-thrombin (1 nM) on quiescent ME cells; at 2.7 uM peptide.

The results in this text go back to patent US6630572.

Molecule RGDA [synthetic peptide p517-520 (residues 517 to 520 of human prothrombin)] had a fold higher concentration for 30% inhibition than p508-530 in assay [1] of 50 fold. In assay [2], this molecule showed a concentration at Maximal % Inhibition of 2.7 µM. For the same molecule, the Concentration Required for 30% Inhibition in assay [3] worked out at 300 nM. In assay [4], this molecule came in with an inhibition of alpha-thrombin stimulated DNA synthesis in ME cells by 625 nM p517-520, at 0.8 nM alpha-thrombin of 75%; an inhibition of alpha-thrombin stimulated DNA synthesis in ME cells by 625 nM p517-520, at 13.0 nM alpha-thrombin of 35%; a molar excess of p517-520 over alpha-thrombin required for inhibition of stimulation of 500 to 1000 fold. The percent of [^125I]-alpha-thrombin binding competed in assay [5] lay within 30 to 50%. In assay [6], the Maximal % Inhibition is 50%.
